In patent publication US20050152896A1 (Amgen, published 2005):

T1: peptide of the 14 C-terminal amino acids of human galanin (human, UniProt P22466 49-62)
T1 construct: domain: 14 C-terminal amino acids of human galanin
T1 peptide (looked up): GNHRSFSDKNGLTS

B1: Fab fragment of murine antibody 5B4 (Fab, V domains shown)
VH: EVQLQQSGAELVRPGALVKLSCKASGFNIEDYYMHWVRQRPEEGLEWIGRIDPENGNTIYDPKFQGKASITADTSSNTAYLQLSSLTSEDTAVYYCVRGYVDWGQGTLVTVSA
VL: DVLMTQTPLSLPVSLGDQASISCRSSQSIVHSDGDTYLEWYLQKAGQSPKLLIYKVSNRFSGVPDRFSGSGSGTDFTLKISRVEAEDLGLYYCFQGSHVPYTFGGGTKLEIKR
notes: Papain Fab of the hybridoma antibody; also called 5B4 Fab
B2: Fab fragment of murine antibody 1D7 (Fab, V domains shown)
VH: EIQLQQSEAELVKPGASVRLSCATSGFNIKDYYIHWVKQTTEQGLEWIGRIDPEDGETEYAPKFQGKATIAADTSSNTAYLLLNSLSSEDTAVYYCTRGYASWGQGTTLTVSS
VL: DVLMTQTPLSLSVSLGDQASISCRSSQSFVHSDGNTYLEWYLQKSGQSPKLLIYKVSNRFSGVPDRFSGSGSGTDFTLKINRVEAEDLGVYYCFQGSHVPYTFGGGTKLEIKR
notes: Papain Fab of the hybridoma antibody; also called 1D7 Fab
B3: Fab fragment of murine antibody 4B3 (Fab, V domains shown)
VH: EIQLQQSEAELVKPGASVRLSCATSGFNIKDYYIHWVKQTTEQGLEWIGRIDPEDGETEYAPKFQGKATIAADTSSNTAYLLLNSLSSEDTAVYYCTRGYASWGQGTTLTVSS
VL: DVLMTQTPLSLSVSLGDQASISCRSSQSFVHSDGNTYLEWYLQKSGQSPKLLIYKVSNRFSGVPDRFSGSGSGTDFTLKINRVEAEDLGVYYCFQGSHVPYTFGGGTKLEIKR
notes: Papain Fab of the hybridoma antibody; also called 4B3 Fab

Target: T1, peptide of the 14 C-terminal amino …
Test: co-crystal structure

Binding result, binds:
B1
B2
B3
